Tests used:
[1] = target: human lymphotoxin (TNFβ) (human) (UniProt P01374); assay: cell-based or functional assay
[2] = target: human tumor necrosis factor-α (TNFα) (human, UniProt P01375 77-233); assay: cell-based or functional assay
Chain of human tumor necrosis factor-α (TNFα) (P01375 77-233): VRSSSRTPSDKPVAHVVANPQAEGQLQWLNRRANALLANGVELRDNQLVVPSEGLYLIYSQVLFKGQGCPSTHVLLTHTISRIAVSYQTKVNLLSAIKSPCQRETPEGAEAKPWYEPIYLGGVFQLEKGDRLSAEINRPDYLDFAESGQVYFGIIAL

Chain of human lymphotoxin (TNFβ) (human) (P01374 35-205 limits assumed): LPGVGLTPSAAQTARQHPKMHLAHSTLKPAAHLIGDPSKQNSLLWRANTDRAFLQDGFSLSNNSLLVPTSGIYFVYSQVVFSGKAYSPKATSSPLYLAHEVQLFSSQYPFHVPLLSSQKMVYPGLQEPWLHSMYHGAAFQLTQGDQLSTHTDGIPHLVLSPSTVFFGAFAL

With “p55-sf2 (p55 TNF receptor / IgG1 heavy chain single fusion with truncated light chain JCK) (from UniProt P19438) (Fc fusion)” the amount needed for the same inhibition of TNFβ cytotoxicity, against p75P-sf2 (fold against p75P-sf2) [1] was 3.

B1: chimeric mouse/human IgG1 anti-platelet mAb (7E3) (antibody, INN chains, looked up, V domains shown)
VH: EVQLQQSGTVLARPGASVKMSCEASGYTFTNYWMHWVKQRPGQGLEWIGAIYPGNSDTSYIQKFKGKAKLTAVTSTTSVYMELSSLTNEDSAVYYCTLYDGYYVFAYWGQGTLVTVSA
VL: EIVLTQSPVTLSVTPGDSVSLSCRASRDISNNLHWFQQTSHESPRLLIKYASQSMSGIPSRFSGSGSGTDFTLSINSVETEDFGMYFCQQTNSWPYTFGGGTKLEIK
modifications: IgG1
Molecule B1 has an IL-6 secreted by FS-4 fibroblasts (ng/ml); 4 µg/ml antibody, 0.3 ng/ml TNF (no antibody: 1.36) [2] of 1.6 ng/ml IL-6, an IL-6 secreted by FS-4 fibroblasts (ng/ml); 4 µg/ml antibody, 1.5 ng/ml TNF (no antibody: 2.00) [2] of 1.96 ng/ml IL-6 and an IL-6 secreted by FS-4 fibroblasts (ng/ml); 4 µg/ml antibody, 7.5 ng/ml TNF (no antibody: 2.56) [2] of 2.16 ng/ml IL-6.

B2: p75-sf2 (complete extracellular domain of p75 fused to the IgG1 heavy chain, with truncated light chain) (Fc fusion)
chain: QLPAQVAFTPYAPEPGSTCRLREYYDQTAQMCCSKCSPGQHAKVFCTKTSDTVCDSCEDSTYTQLWNWVPECLSCGSRCSSDQVETQACTREQNRICTCRPGWYCALSKQEGCRLCAPLRKCRPGFGVARPGTETSDVVCKPCAPGTFSNTTSSTDICRPHQICNVVAIPGNASMDAVCTSTSPTRSMAPGAVHLPQPVSTRSQHTQPTPEPSTAPSTSFLLPMGPSPPAEGSTGDGTLVTVSS
In the case of B2, the “amount needed for 50% inhibition of TNFα cytotoxicity, against p55-sf2” value [2] is reported as about 2 fold against p55-sf2.
